These results are taken from publication PMC7614769, “Structural basis for Fc receptor recognition of immunoglobulin M” (Nature structural & molecular biology, 2023).

The target of the test is pentameric IgM-Fc core containing Cμ4, Cμ3 and the J chain (human, UniProt P01871 106-433; P01591 23-159, N-linked glycosylation at Asn563). Nature of the test: BLI; FcμR (20 μg/ml) captured on AMC (anti-mouse IgG-Fc capture) biosensors by the anti-FcμR antibody RR-16; full-length or proteolysed IgM 0.08-10 nM in solution; PBS, 0.005% Tween 20, 25 °C; apparent Kd from response against IgM concentration, 1:1 binding model. As to conditions: both partners purified. For orientation: Biolayer interferometry detects binding as a change in optical thickness at a sensor tip.

B1: human FcμR ectodomain (receptor, UniProt O60667 17-251, looked up)
chain: LRILPEVKVEGELGGSVTIKCPLPEMHVRIYLCREMAGSGTCGTVVSTTNFIKAEYKGRVTLKQYPRKNLFLVEVTQLTESDSGVYACGAGMNTDRGKTQKVTLNVHSEYEPSWEEQPMPETPKWFHLPYLFQMPAYASSSKFVTRVTTPAQRGKVPPVHHSSPTTQITHRPRVSRASSVAGDKPRTFLPSTTASKISALEGLLKPQTPSYNHHTRLHRQRALDYGSQSGREGQG
notes: FcμR, human, ectodomain; Full-length human FcμR has 390 aa; 251 aa are extracellular: 17-aa signal peptide, 107-aa Ig-like domain, 127-aa stalk; Only the Ig-like domain is resolved in the cryo-EM maps; also called TOSO; FAIM3; source: bought: R&D, Catalog 9494-MU-050, lyophilized, suspended in PBS
As to B1, the Kd was 0.7 ± 0.1 nM.
